Measured values taken from US20230226151A1 (NGM BIOPHARMACEUTICALS, published 2023).

Biological target: Mouse FGFR4/β-klotho complex co-expressed in L6 cells (mouse, UniProt Q03142 17-799; Q99N32 1-1043)
Assay: cell-based or functional assay

Sequence of Mouse FGFR4/β-klotho complex co-expressed in L6 cells (Q03142 17-799, chain 1 of 2): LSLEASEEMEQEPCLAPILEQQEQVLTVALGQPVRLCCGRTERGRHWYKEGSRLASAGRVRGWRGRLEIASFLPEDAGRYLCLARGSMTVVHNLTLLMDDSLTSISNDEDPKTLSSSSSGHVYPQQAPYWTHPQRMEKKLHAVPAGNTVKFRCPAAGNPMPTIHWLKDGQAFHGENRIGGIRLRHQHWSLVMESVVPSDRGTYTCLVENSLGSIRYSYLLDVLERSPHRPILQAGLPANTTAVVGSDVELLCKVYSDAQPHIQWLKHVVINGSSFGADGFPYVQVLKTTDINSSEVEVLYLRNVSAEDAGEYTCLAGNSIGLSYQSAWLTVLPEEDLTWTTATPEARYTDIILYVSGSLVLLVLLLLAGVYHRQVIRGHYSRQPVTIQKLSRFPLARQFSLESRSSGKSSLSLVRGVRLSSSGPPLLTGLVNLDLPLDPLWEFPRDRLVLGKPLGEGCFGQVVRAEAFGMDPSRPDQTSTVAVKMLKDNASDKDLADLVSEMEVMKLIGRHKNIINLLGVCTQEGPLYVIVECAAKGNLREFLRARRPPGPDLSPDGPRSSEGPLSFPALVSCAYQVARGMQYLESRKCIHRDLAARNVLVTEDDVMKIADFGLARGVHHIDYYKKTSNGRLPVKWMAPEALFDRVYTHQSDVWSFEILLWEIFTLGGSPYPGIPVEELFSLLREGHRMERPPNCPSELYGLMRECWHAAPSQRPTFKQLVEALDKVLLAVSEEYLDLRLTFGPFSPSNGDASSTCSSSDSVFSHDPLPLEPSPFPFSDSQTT
Sequence of Mouse FGFR4/β-klotho complex co-expressed in L6 cells (Q99N32 whole entry, chain 2 of 2): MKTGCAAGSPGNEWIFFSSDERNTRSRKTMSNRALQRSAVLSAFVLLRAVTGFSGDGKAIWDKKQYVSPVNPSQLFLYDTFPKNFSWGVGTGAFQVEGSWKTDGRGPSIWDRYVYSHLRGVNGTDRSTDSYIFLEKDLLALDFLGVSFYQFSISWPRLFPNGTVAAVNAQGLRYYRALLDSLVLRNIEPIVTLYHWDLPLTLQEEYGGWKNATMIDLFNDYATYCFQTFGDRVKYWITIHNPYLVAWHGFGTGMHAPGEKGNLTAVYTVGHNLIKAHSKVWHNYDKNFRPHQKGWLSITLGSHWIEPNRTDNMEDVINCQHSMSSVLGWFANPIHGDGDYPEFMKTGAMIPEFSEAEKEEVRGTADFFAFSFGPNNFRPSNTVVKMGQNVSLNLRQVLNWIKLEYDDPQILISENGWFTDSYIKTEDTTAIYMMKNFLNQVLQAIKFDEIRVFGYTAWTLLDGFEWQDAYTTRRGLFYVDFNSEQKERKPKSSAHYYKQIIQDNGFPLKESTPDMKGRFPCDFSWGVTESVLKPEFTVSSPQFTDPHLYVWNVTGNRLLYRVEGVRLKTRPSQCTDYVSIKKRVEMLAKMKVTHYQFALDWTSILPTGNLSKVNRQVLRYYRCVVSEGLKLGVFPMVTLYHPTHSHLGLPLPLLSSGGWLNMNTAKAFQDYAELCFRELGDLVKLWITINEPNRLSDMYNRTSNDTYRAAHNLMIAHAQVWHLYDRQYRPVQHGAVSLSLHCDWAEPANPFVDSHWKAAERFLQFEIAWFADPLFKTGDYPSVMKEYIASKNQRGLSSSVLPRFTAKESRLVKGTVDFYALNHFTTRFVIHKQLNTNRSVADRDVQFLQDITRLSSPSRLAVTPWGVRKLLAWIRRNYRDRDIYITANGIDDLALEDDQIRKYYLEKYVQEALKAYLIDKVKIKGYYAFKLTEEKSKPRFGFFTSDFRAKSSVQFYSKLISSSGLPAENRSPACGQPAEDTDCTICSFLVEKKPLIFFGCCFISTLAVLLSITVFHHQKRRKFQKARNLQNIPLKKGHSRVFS

B1: M70 (FGF19 variant) (ligand)
chain: MRDSSPLVHYGWGDPIRLRHLYTSGPHGLSSCFLRIRADGVVDCARGQSAHSLLEIKAVALRTVAIKGVHSVRYLCMGADGKMQGLLQYSEEDCAFEEEIRPDGYNVYRSEKHRLPVSLSSAKQRQLYKNRGFLPLSHFLPMLPMVPEEPEDLRGHLESDMFSSPLETDSMDPFGLVTGLEAVRSPSFEK
B1 was tested, and the “EC50 (pM), ELK1 luciferase reporter in L6 cells” value was 38.3 pM and the “Emax (fold potentiation), ELK1 luciferase reporter in L6 cells” value was 1.85 fold potentiation.
